Values of other authors in publication PMC3040723.

Target: IscU (Escherichia coli) (UniProt P0ACD4)
Sequence (P0ACD4 whole entry): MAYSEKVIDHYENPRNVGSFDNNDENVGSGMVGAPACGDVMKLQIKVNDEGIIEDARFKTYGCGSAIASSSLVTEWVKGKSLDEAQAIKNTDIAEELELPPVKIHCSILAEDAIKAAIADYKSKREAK

Sequence of HscB (P0A6L9 whole entry): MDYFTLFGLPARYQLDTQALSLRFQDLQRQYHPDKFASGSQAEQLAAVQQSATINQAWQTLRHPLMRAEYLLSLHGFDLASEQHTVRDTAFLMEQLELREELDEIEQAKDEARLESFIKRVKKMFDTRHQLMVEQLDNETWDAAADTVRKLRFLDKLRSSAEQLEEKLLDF

HscB (from UniProt P0A6L9)
Kd: 13 µM
